According to paper PMC2924314, “Peptides derived from the HIV-1 integrase promote HIV-1 infection and multi-integration of viral cDNA in LEDGF/p75-knockdown cells” (Virology Journal, 2010):

Molecular target: INS (IN derived-integrase stimulatory peptide) (HIV-1)
Assay: ELISA

Substance “Lens Epithelium Derived Growth Factor p75 (LEDGF/p75), histidine-tagged recombinant, O75475 1-530 (natural protein; other documents disagree on this pair)” has a Kd of 2200 nM.
